From patent US20250277037A1 (UNIVERSITY OF UTAH RESEARCH FOUNDATION, published 2025) come the findings set out here.

Assay [1] deals with mouse FcγRIV on RAW 264.7 macrophage cells (mouse). In words: competition, flow cytometry on RAW 264.7 cells; 25 and 250 µg/mL, not concentration-dependent; competitor PE anti-mouse FcγRIV (9E9).
Assay [2] has the same target. The experiment in a line: competition by flow cytometry on RAW 264.7 cells: preincubation with the antibody at 4 °C for 30 min, then staining with PE anti-mouse FcγRIV (clone 9E9); inhibition relative to cells without antibody. (In flow cytometry, cells or beads pass a laser one at a time.)
In assay [3] the target is mouse PD-1 (programmed death-1, CD279) on EL4 cells (mouse) (UniProt Q02242). The experiment in a line: flow cytometry on PD-1+ EL4 cells, incubation on ice (4 °C) for 30 min, detection with PE anti-mouse IgG2a; medium control without antibody given as 70.0.
Assay [4] addresses mouse FcγRIV on RAW 264.7 macrophage cells (mouse). In words: flow cytometry, Alexa-647-labelled antibody at 4 µg/mL on RAW 264.7 cells, 4 °C 30 min (medium control 188.3).
In assay [5] the target is T1, mouse FcγRIV on RAW 264.7 macrophage cells (mouse, UniProt A0A0B4J1G0 21-249).
T1 construct: also called RAW 264.7 cells
T1 sequence: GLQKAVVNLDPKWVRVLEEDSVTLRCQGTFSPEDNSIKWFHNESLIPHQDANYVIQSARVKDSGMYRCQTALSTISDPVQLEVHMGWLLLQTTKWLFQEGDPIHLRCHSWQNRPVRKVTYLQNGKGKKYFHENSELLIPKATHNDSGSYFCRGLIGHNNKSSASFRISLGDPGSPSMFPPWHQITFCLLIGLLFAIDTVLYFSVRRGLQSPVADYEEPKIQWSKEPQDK
The experiment in a line: flow cytometry, Alexa-647-labelled antibody at 4 µg/mL on RAW 264.7 cells, 4 °C 30 min; reference: cells in the medium control. The procedure: ADCP was the next mechanism that was investigated. Before evaluating D-αPD-1-mediated ADCP by macrophages, the binding between D-αPD-1 and macrophages was investigated since the binding is the prerequisite of ADCP. Here, RAW 264.7 cells were incubated with Alexa-647-labeled D-αPD-1, isotype control, or the medium control. Then, the bound antibodies were analyzed by flow cytometry (FIG. 5A).

Chain of mouse PD-1 (programmed death-1, CD279) on EL4 cells (mouse) (Q02242 25-288): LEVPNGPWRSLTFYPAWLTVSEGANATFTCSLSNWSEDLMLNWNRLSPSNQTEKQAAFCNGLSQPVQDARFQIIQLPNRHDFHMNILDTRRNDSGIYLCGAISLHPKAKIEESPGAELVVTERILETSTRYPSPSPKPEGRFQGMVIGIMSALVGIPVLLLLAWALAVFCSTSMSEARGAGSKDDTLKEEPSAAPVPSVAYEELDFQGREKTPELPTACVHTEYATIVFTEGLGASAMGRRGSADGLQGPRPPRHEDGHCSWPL

“B-αPD-1 (anti-mouse PD-1 blocking antibody, clone RMP1-14, a rat IgG)” gave a percent inhibition of anti-mouse FcγRIV antibody binding in assay [1] of 10%. In addition, in assay [2], the Inhibition (%) at 25 µg/mL came out at 10.5% and the Inhibition (%) at 250 µg/mL came out at 6.7%.

goat IgG control (antibody) yielded a percent inhibition of anti-mouse FcγRIV antibody binding in assay [1] of 10%. Besides, in assay [2], the Inhibition (%) at 25 µg/mL stood at 4% and the Inhibition (%) at 250 µg/mL was 4.3%.

In assay [3], mouse IgG2a isotype control (antibody) gave an MFI at 0.1 µg/mL of 95.4, an MFI at 1 µg/mL of 125 and an MFI at 10 µg/mL of 433. Besides, the MFI in assay [4] is 213 MFI.

B1: D-αPD-1 (depleting anti-mouse PD-1 antibody; RMP1-14 variable domains on mouse IgG2a heavy and mouse κ light constant domains) (antibody)
heavy: EVQLQESGPGLVKPSQSLSLTCSVTGYSITSSYRWNWIRKFPGNRLEWMGYINSAGISNYNPSLKRRISITRDTSKNQFFLQVNSVTTEDAATYYCARSDNMGTTPFTYWGQGTLVTVSSAKTTAPSVYPLAPVCGDTTGSSVTLGCLVKGYFPEPVTLTWNSGSLSSGVHTFPAVLQSDLYTLSSSVTVTSSTWPSQSITCNVAHPASSTKVDKKIEPRGPTIKPCPPCKCPAPNLLGGPSVFIFPPKIKDVLMISLSPIVTCVVVDVSEDDPDVQISWFVNNVEVHTAQTQTHREDYNSTLRVVSALPIQHQDWMSGKEFKCKVNNKDLPAPIERTISKPKGSVRAPQVYVLPPPEEEMTKKQVTLTCMVTDFMPEDIYVEWTNNGKTELNYKNTEPVLDSDGSYFMYSKLRVEKKNWVERNSYSCSVVHEGLHNHHTTKSFSRTPGK
light: DIVMTQGTLPNPVPSGESVSITCRSSKSLLYSDGKTYLNWYLQRPGQSPQLLIYWMSTRASGVSDRFSGSGSGTDFTLKISGVEAEDVGIYYCQQGLEFPTFGGGTKLELKRADAAPTVSIFPPSSEQLTSGGASVVCFLNNFYPKDINVKWKIDGSERQNGVLNSWTDQDSKDSTYSMSSTLTLTKDEYERHNSYTCEATHKTSTSPIVKSFNRNEC
notes: also called anti-αPD-1 antibody; anti-PD-1 antibody 1
Take B1: the “fold MFI over medium control” value in assay [5] is around 3 fold.
